Patent KR20210116113A

Experiments:
c-Myc 펩타이드 (…) [1] = molecular target: T1, c-Myc 펩타이드 (…); test: ELISA, c-Myc peptide coated at 2 ug/ml, scFv at 0.5 ug/ml (replicate), anti-HA peroxidase detection
T1 sequence (peptide): MPLNVSFTSRNYDLD

c-Myc 펩타이드 (…) [2] = molecular target: T1, c-Myc 펩타이드 (…); test: ELISA, c-Myc peptide coated at 2 ug/ml, scFv at 4 ug/ml (replicate), anti-HA peroxidase detection
c-Myc 펩타이드 (…) [3] = molecular target: T1, c-Myc 펩타이드 (…); test: ELISA, c-Myc peptide coated at 2 ug/ml, scFv at 2 ug/ml, anti-HA peroxidase detection
c-Myc 펩타이드 (…) [4] = molecular target: T1, c-Myc 펩타이드 (…); test: ELISA, c-Myc peptide coated at 2 ug/ml, scFv at 4 ug/ml, anti-HA peroxidase detection
c-Myc 펩타이드 (…) [5] = molecular target: T1, c-Myc 펩타이드 (…); test: ELISA, c-Myc peptide coated at 2 ug/ml, scFv at 1 ug/ml (replicate), anti-HA peroxidase detection
c-Myc 펩타이드 (…) [6] = molecular target: T1, c-Myc 펩타이드 (…); test: ELISA, c-Myc peptide coated at 2 ug/ml, scFv at 2 ug/ml (replicate), anti-HA peroxidase detection
c-Myc 펩타이드 (…) [7] = molecular target: T1, c-Myc 펩타이드 (…); test: ELISA, c-Myc peptide coated at 2 ug/ml, scFv at 1 ug/ml, anti-HA peroxidase detection
c-Myc 펩타이드 (…) [8] = molecular target: T1, c-Myc 펩타이드 (…); test: ELISA, c-Myc peptide coated at 2 ug/ml, scFv at 0.5 ug/ml, anti-HA peroxidase detection

absorbance at 450 nm (antigen(peptide) coating) (c-Myc 펩타이드 (…) [1]): 0.431 OD 450nm
delta (absorbance at 450 nm minus background control) (c-Myc 펩타이드 (…) [1]): 0.379 OD 450nm
absorbance at 450 nm (antigen(peptide) coating) (c-Myc 펩타이드 (…) [2]): 2.17 OD 450nm
delta (absorbance at 450 nm minus background control) (c-Myc 펩타이드 (…) [2]): 2.11 OD 450nm
absorbance at 450 nm (antigen(peptide) coating) (c-Myc 펩타이드 (…) [3]): 1.31 OD 450nm
delta (absorbance at 450 nm minus background control) (c-Myc 펩타이드 (…) [3]): 1.26 OD 450nm
absorbance at 450 nm (antigen(peptide) coating) (c-Myc 펩타이드 (…) [4]): 2.15 OD 450nm
delta (absorbance at 450 nm minus background control) (c-Myc 펩타이드 (…) [4]): 2.1 OD 450nm
absorbance at 450 nm (antigen(peptide) coating) (c-Myc 펩타이드 (…) [5]): 0.788 OD 450nm
delta (absorbance at 450 nm minus background control) (c-Myc 펩타이드 (…) [5]): 0.735 OD 450nm
absorbance at 450 nm (antigen(peptide) coating) (c-Myc 펩타이드 (…) [6]): 1.3 OD 450nm
delta (absorbance at 450 nm minus background control) (c-Myc 펩타이드 (…) [6]): 1.25 OD 450nm
absorbance at 450 nm (antigen(peptide) coating) (c-Myc 펩타이드 (…) [7]): 0.808 OD 450nm
delta (absorbance at 450 nm minus background control) (c-Myc 펩타이드 (…) [7]): 0.756 OD 450nm
absorbance at 450 nm (antigen(peptide) coating) (c-Myc 펩타이드 (…) [8]): 0.415 OD 450nm
delta (absorbance at 450 nm minus background control) (c-Myc 펩타이드 (…) [8]): 0.363 OD 450nm
B1: clone 1D1 항체 (scFv, anti-c-Myc-tag 1D1) (scFv)
scFv: LTQPSSVSANLGETQDHCSGGGSNSAYGWFQQKSPGSAPVTLIYDNTNRPSNIPSRFSGSKSGSTATLTITGVQADDEAVYYCGSAGSSYVGIFGAGTTLTVLGQSSRSSSGGGSSGGGGSAVTLDESGGGLQTPGGGLSLVCKGSGFTFSSYQMNWIRQAPGKGLEFVAAINRFGNRTGYGAAVKGRATISRGDGQSTVRLQLNNLRAEDTATYYCAKAAYGYCGSGGWRDVAGTDAWGHGTEVIVSSTS
